Test results taken from the supplement of paper PMC12042874.
± gives the uncertainty stated by the source.

Test: amyloid nucleation score (Sup35N fusion, yeast selection) (log enrichment); library NNK1; higher = more nucleation; inactive = no reads after selection
How it was run: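 Peptides of 20 random codons, each fused to Sup35N, were expressed in psi-negative yeast. Cells were induced with 100 μM copper sulfate for 24 hours and grown 7 days at 30°C on medium lacking adenine and uracil, and plasmid inserts before and after selection were Illumina-sequenced. Nucleation scores are DiMSum log enrichments of output over input reads, centred on the mode score of non-aggregating sequences, and sequences under 100 input reads were excluded.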

| Substance | amyloid nucleation score |
| --- | --- |
| AEWLWEVGGMGCQVKGEEAR | -0.34 ± 0.36 |
| AFLTQTSHSQTT | 0.048 ± 0.74 |
| AFMYYMKPSMPIYELRILEG | inactive |
| AFRVS | -0.513 ± 0.63 |
| AFSTG | inactive |
| AFTFGYTFQFYLLASTYMIR | inactive |
| AFVEVFHQGLLRSAMSQMVS | -0.378 ± 0.74 |
| AFYLN | -0.055 ± 0.34 |
| AGFLS | -0.388 ± 0.62 |
| AGGAP | 0.501 ± 0.89 |
| AGGLLYMLTHLNDVHSVKRY | 1.12 ± 0.93 |
| AGGQGRLSRKVYSTMWVESL | 1.17 ± 0.21 |
| AGHLGWARFVYTLLSEDTVH | 0.031 ± 0.79 |
| AGKGLAEARTYS | inactive |
| AGLKV | -0.479 ± 0.4 |
| AGNCRDW | -0.857 ± 0.66 |
| AGPDSSGAGGGSARFLFPEL | 0.184 ± 1.2 |
| AGSGMLSKLVLLSRKSVSCN | 1.02 ± 0.74 |
| AGVLAV | -0.246 ± 0.46 |
| AGWKTRHQGRVIVLGFWEGW | 0.059 ± 0.41 |
| AGWYINYTGKRDDARLLY | 0.187 ± 0.86 |
| AHKWCVVCQTV | 0.338 ± 0.52 |
| AHPSNSYGRNNGVLASHRWD | -0.847 ± 0.41 |
| AHTLSYVFWLYHMDQCVLFV | -0.127 ± 1.4 |
| AIFGVTPKSVITTYNFTLHM | 6.01 ± 0.088 |
| AILRHRSVNSGGELCGSKFP | 0.293 ± 1 |

| Substance | amyloid nucleation score |
| --- | --- |
| AIMCKYLRKLVLMFFSR | 0.811 ± 0.55 |
| AIRSFRARIGN | 0.177 ± 1.2 |
| AKMIDR | 0.399 ± 0.5 |
| ALDIFTNTKSVIGYVGIGKC | 0.194 ± 0.52 |
| ALDVWVLMKHSYGLSTVDAL | inactive |
| ALFVVCYRYFVESGTKWRRT | -0.009 ± 0.28 |
| ALKGSRHDL | -0.037 ± 0.73 |
| ALKHPML | -0.815 ± 0.49 |
| ALKLARG | -0.019 ± 1.2 |
| ALLHVNLIVGNYTSGG | 3.28 ± 0.13 |
| ALLNVQVRGYVGLGR | 1.4 ± 0.52 |
| ALNLKCIRLSGV | 0.496 ± 0.47 |
| ALRIHGLCFEVVCMRIWSRR | 0.436 ± 0.46 |
| ALSGCERRNHLSCRSNLRDG | -0.542 ± 0.91 |
| ALSYGIVAMMVVIGPGIVVC | 0.388 ± 0.27 |
| ALVGMRQITEILVTRDRQWG | 0.332 ± 0.27 |
| ALVRL | 0.085 ± 0.46 |
| ALWVNVMQARAIGSGFGRTK | -0.415 ± 0.58 |
| ALYKSPLVNRSYAFLYSGA | 0.964 ± 0.69 |
| AMEPKVWRDGLLPG | -0.471 ± 0.47 |
| AMFNIW | -0.328 ± 0.47 |
| AMGARMFRNYRTACAHLLQW | 0.019 ± 1 |
| AMGRGLNWCPIGFVVSDMQR | 1.39 ± 0.67 |
| AMLSIVSISAS | 1.39 ± 0.69 |
| AMRGYCRAFQIWVWICGLSL | 0.027 ± 0.86 |
| AMWLFACGLWLLLPRYIGRC | -0.485 ± 1.2 |

| Substance | amyloid nucleation score |
| --- | --- |
| ANGILV | 0.499 ± 0.28 |
| ANSVQG | 0.9 ± 0.73 |
| ANTLRKMNLLSELVLNLLTG | 3.3 ± 0.14 |
| ANWCF | -0.213 ± 0.5 |
| APAAIINFLDPHICARMAMF | -0.513 ± 1.3 |
| APDDSRQCSETESSGFLTHW | 0.366 ± 0.47 |
| APEFFNSDRASIAKF | -0.558 ± 0.77 |
| APMNVLEVTFSYSADLTVVV | 0.167 ± 0.79 |
| APSWYRSLMRSSA | 0.159 ± 0.34 |
| APVVGTNSTTGEYSLTPSSW | 0.741 ± 0.41 |
| AQARWCWRLH | 0.963 ± 0.69 |
| AQQLLIGDDDLDTAVEFDDM | -0.509 ± 0.86 |
| AQTWGESKTLPENLANYDAY | 0.241 ± 0.56 |
| AQVNLIPNLRETLYDPAISR | 0.665 ± 0.55 |
| ARATS | -0.53 ± 0.52 |
| ARRASVEFSYSTLERGMWRC | 1.9 ± 0.18 |
| ARRGVVNPYLSVEFFFRRGL | 0.493 ± 0.68 |
| ARSTSALQL | -1.97 ± 1.8 |
| ARVGFTLT | -0.265 ± 0.87 |
| ASAFFRVWSLNKIICYEVSD | 4.56 ± 0.051 |
| ASFRNRPCVQCPGLCILRLS | 0.002 ± 0.24 |
| ASGDMSDWISWLGSMRCKIR | -0.082 ± 1 |
| ASLTFFS | 0.283 ± 0.76 |
| ASNAWCMYYMLATGAMEISL | -0.617 ± 0.86 |
| ASPMVRISYLNDHKQLKKF | -0.414 ± 0.28 |
| ASSCLNSRFGCQRFLGYLWL | 0.33 ± 0.39 |

| Substance | amyloid nucleation score |
| --- | --- |
| ASSLDLFNWASVWFFNYIGA | -0.887 ± 0.86 |
| ASTSYPWKSGVMVGGKLKNP | 0.287 ± 0.53 |
| ASYMYAPSIFYSERLKWNPS | 0.226 ± 0.78 |
| ASYTIND | -0.57 ± 1.1 |
| ASYYQWLSLFFLTNRPFFGG | -0.809 ± 1.2 |
| ATCCNSWIAF | 7.035 ± 0.054 |
| ATDSWDC | 0.278 ± 0.33 |
| ATKSRLVNILTGKDEALTGL | -0.684 ± 0.42 |
| ATLMYWASSWSCWFTKGTAV | -0.413 ± 0.37 |
| ATMCVTLIWCYSSKQRMYKK | 1.08 ± 0.15 |
| ATMYICTRHSTAYGVFHSFV | 0.105 ± 1.2 |
| ATSALGCVTHVIMSNILTMN | 0.106 ± 0.34 |
| ATSPLCCRH | 0.022 ± 0.28 |
| AVCDKVLRSVEWIFPGLNDS | -0.496 ± 0.51 |
| AVEGCVFCWIRCVIRFLV | -0.642 ± 0.69 |
| AVGIANFTAPKCWLDNVGP | 0.085 ± 0.59 |
| AVHICYNYRSYSI | 0.5 ± 0.95 |
| AVQKVRCRWN | -0.009 ± 0.23 |
| AVRDDMDY | -0.059 ± 0.22 |
| AVVERFHL | -0.132 ± 0.39 |
| AWIDCVSTNTTLDIPSLGP | 0.402 ± 0.24 |
| AWLNRSYRMLHPMWGVCMDM | 1.26 ± 0.85 |
| AYCVH | 0.202 ± 0.59 |
| AYILRWFFTSECRSVQSTSK | -0.105 ± 0.45 |
| AYLGASREIYCYGPMYYMLP | 2.97 ± 0.098 |
| AYPLKTFIFYHGLMIWFNAM | 0.827 ± 0.84 |

| Substance | amyloid nucleation score |
| --- | --- |
| AYSDVYQLFYLKYMFCNWLL | 2.89 ± 0.26 |
| CACKLVQSIYLCESLGHPRS | 5.73 ± 0.06 |
| CAKLCKASHSVFIDDRRCVR | -1.02 ± 2.4 |
| CALVYGWTEHDV | 1.44 ± 0.64 |
| CANGLLRDLVQAI | 0.547 ± 0.61 |
| CARSVCKSQYSSMSMPYLIV | 0.782 ± 0.39 |
| CCLHSAFSNNARILFMALRS | 0.861 ± 0.84 |
| CDGDASAYDTRGTALSA | inactive |
| CDGPCALQS | 0.263 ± 0.51 |
| CDKKWIASQSMVGRRTMV | inactive |
| CEGCSWFSCSF | 0.749 ± 0.48 |
| CEGKGWFANITYSDFLLIMR | -0.462 ± 0.97 |
| CEMKASGLKYVHRFNSIPVM | 0.984 ± 0.57 |
| CEMMDNPFLLLRVKGSKVRS | inactive |
| CERLKT | 0.784 ± 0.35 |
| CERQNYVP | 0.326 ± 1.2 |
| CFFASVHPLCYRGVSGVGVF | -1.28 ± 2.1 |
| CFFRTDGLDTPYGAYLVRSF | 2.31 ± 0.2 |
| CFLIVHLNSRSDTCHEGSEC | -0.081 ± 0.54 |
| CFLVGSWTPI | 0.215 ± 0.76 |
| CFPTWYLLLDCWVQFPAHTK | 2.56 ± 0.16 |
| CFSDKS | -0.621 ± 0.42 |
| CFVHLLGIIYLSLDRNYCRE | 0.272 ± 0.57 |
| CGAVHGGGWSAIYLNGYLGW | 0.186 ± 0.95 |
| CGFVEMTSRSKIHSLICWPG | 1.53 ± 0.44 |
| CGGYSTTCSLTWEILASNRL | 0.675 ± 1 |

| Substance | amyloid nucleation score |
| --- | --- |
| CHRRMMNEWSGLKNVLFKKG | 0.791 ± 0.97 |
| CHSHDVCRGMLT | -0.135 ± 0.38 |
| CIDMFNLLNLKHASYWVVVY | -0.563 ± 0.52 |
| CIEDVCCS | -0.016 ± 0.23 |
| CILAGGSSVGLNCVGMSTCG | 0.438 ± 0.8 |
| CIRREFSHDESDVNRSTWFI | 0.391 ± 0.71 |
| CISGD | 0.429 ± 0.37 |
| CIWSSNLFSRSSTSDWRLDT | -0.109 ± 0.29 |
| CKKELFKT | 0.77 ± 0.66 |
| CKMWTE | 0.405 ± 0.75 |
| CKTGGFYRSVGRTTRFCHVE | -0.321 ± 0.39 |
| CLAGGYSGNAEGMIIETRAK | -0.171 ± 1.7 |
| CLCDAISYSGIIKDVDKVCE | 0.875 ± 0.93 |
| CLCMSC | 0.108 ± 0.43 |
| CLDNWLGGHNSLSSYSG | 0.538 ± 0.37 |
| CLFWDSCYRKLLTIYDNM | -0.941 ± 0.63 |
| CLGDTWWNMNKSGTEVVCPV | 0.858 ± 1.1 |
| CLISP | inactive |
| CLMLAGRFIC | -0.422 ± 0.56 |
| CLNSDALDHW | 1.17 ± 0.42 |
| CLNTMWRKPVEAREM | 0.189 ± 1 |
| CLPQLTDQPPKFHRLQFFCV | 0.348 ± 0.4 |
| CLRGLNAPLYNRCFAGILLG | -0.6 ± 0.36 |
| CLSNM | inactive |
| CLVFWETECSA | -0.323 ± 0.29 |
| CLVYSTYIDGQTLAKTF | -0.761 ± 1.2 |

| Substance | amyloid nucleation score |
| --- | --- |
| CLYAIKLCM | 6.82 ± 0.043 |
| CMAGRNSFKLYMRRFNEENY | inactive |
| CMRFAPMMHANCHVKARWHR | 0.696 ± 0.6 |
| CMRHHMSQHCIPGGPRCRGA | -0.912 ± 0.65 |
| CMSIRWSCYPLNNQVVATEV | 0.044 ± 0.29 |
| CMSRSYYYTSPKDPKEFNC | 0.56 ± 0.33 |
| CNFMVSYRISFMLRLIQYYV | -0.938 ± 0.31 |
| CNKNNCWCYHCSYQVWHALY | 0.381 ± 0.42 |
| CNLNAGGKRWADRT | 0.3 ± 0.85 |
| CNSFCGMHCGNV | 0.238 ± 0.62 |
| CNSRNITT | -0.345 ± 0.67 |
| CNSVDVVLISATACYSWSTL | 0.552 ± 0.48 |
| CNYWRNRRWF | 1.48 ± 0.33 |
| CPDLGYACWYIINRIPSTWC | -1.3 ± 1.2 |
| CPGNIIYTFPIDVPKHG | 0.641 ± 0.79 |
| CPLEDLIKRLNHLYVH | 0.21 ± 0.6 |
| CPVCNTESTCRYPRVGKWDT | 3.01 ± 0.17 |
| CQPLLSMYLVHYTA | 0.116 ± 0.2 |
| CQSLPKFLHANVKYNSVSGA | -0.16 ± 0.24 |
| CRAQGFDASSHYCYLFLALS | -0.427 ± 1.4 |
